What was measured:
[1] = Water solubility of SELP47K films; assay type: physicochemical
From the text: The coating appeared to be comprised of densely packed intertwining strands. […] Short, single/double strands of material were found in areas where the coating appeared to be less concentrated. Individual strands of material could be seen in the less concentrated, gray areas on the wafer. SEM analysis of the films provide the basis of water-solubility of SELP47K films.

facial skin [2] = experiment: Skin efficacy study: Cutometer Uv (viscoelasticity); assay type: in vivo, human; conditions: 5% aqueous solution applied once to face; 30 Minutes Post; baseline mean 0.09
From the text: (§1) Eleven impaneled subjects (age 35-70 years) showing clear signs of facial skin aging were provided with a non-moisturizing soap, (AVEENO®), one week prior to the study and were instructed to use the provided soap to wash the face and were required to refrain from excessive UV exposure. After a seven-day conditioning phase, subjects were acclimated to the ambient temperature and humidity for thirty minutes. One side of the face of each subject was designated as the measurement side by random selection by computer. After 30-minute acclimation period, baseline digital photographs were taken, and instrumental measurements, skin replica samples and visual evaluations were made. Photographs were taken, with a Canfield Scientific Camera, of the full face, the periorbital area, and the temporal side of eye. Chromameter (Model CR300, Minolta) measurements were taken from the periorbital area directly under the eye (Chardon et al., Int. J. Cosmet. Sci., 13:191-208 [1991]). Silflo replicas (CuDerm Corporation, Dallas, Tx) were made from the periorbital area adjacent to the temporal side of the eye (Grove et al., J. Am. Acad. Dermatol., 21:631-637 [1998]; and Sun et al 1997 IFSCC Conference, Mexico). Cutometer (SEM575, Courage and Khazaka, Germany) measurements were taken at the periorbital area at the upper portion of cheekbone. All measurements were performed in triplicate. […]

[3] = Cloud point determination (turbidity at 300 nm, 20-80° C.); assay type: physicochemical; conditions: 0.05% solution in water
[4] = Glass transition and decomposition temperature (DSC, DMA, TGA); assay type: physicochemical
Procedure: In this Example, experiments performed to determine the glass transition temperature (Tg) and decomposition temperature of SELP47K. (Example 1) are described. Approximately 10 mg of SELP47K material was crimped in an aluminum (Al) pan, cooled to <−150° C., then heated to >200° C. at 10° C./min under a He (helium) atmosphere. […] This initially appeared to be followed by another endothermic region and the analysis was stopped near 225° C. […] Another sample of material was examined by TGA and found to have mass loss (−8%) from room temperature to approximately 200° C., confirming the broad endotherm observed with the first sample.
A strip of SELP47K was examined by using a dynamic mechanical analyzer (DMA) over the range of −150 to 200° C. […] Another DSC sample was run, pre-heating at 100° C. for 1 hour initially to remove volatiles. The mass loss endotherm was mostly removed, and a transition at 188° C. (half-height) remained. This run was stopped and the sample cooled and examined.

facial skin [5] = experiment: Skin efficacy study: superficial facial line score (Packman and Gans); assay type: in vivo, human
From the text: as §1, with “[1991]).” for “[1991]). Silflo replicas (CuDerm Corporation, Dallas, Tx) were made from the periorbital area adjacent to the temporal side of the eye (Grove et al., J. Am. Acad. Dermatol., 21:631-637 [1998]; and Sun et al 1997 IFSCC Conference, Mexico). Cutometer (SEM575, Courage and Khazaka, Germany) measurements were taken at the periorbital area at the upper portion of cheekbone. All measurements were performed in triplicate.”
Evaluation of superficial facial lines was performed by an expert evaluator using the scoring method described by Packman and Gans (supra). A 7% decrease in the superficial facial line score was assessed at the 30-minute post-treatment interval compared to baseline, which was statistically significant at the 91% confidence level (p=0.09).

[6] = Isoelectric point determination (IEF gel); assay type: physicochemical
Procedure: In this Example, experiments performed to determine the isoelectric point and cloud point of SELP47K (Example 1) are described. The isoelectric point of SELP47K was determined by electrophoresing 5 mg/ml SELP47K solution using Isoelectric Focusing Electrophoresis (IEF) gel and Novex electrophoresis apparatus along with protein standards markers.

Substance: SELP47K: silk-elastin repeat sequence protein copolymer, head-[(GAGAGS)2(GVGVP)3GKGVP(GVGP)4(GAGAGS)2]13-tail (SEQ ID NO:19), 886 amino acids
- water solubility of film ([1]; film made out of 10% SELP47K solution): water-soluble
- water solubility of film ([1]; film made out of 20% SELP47K solution): water insoluble
- Cutometer Uv Score, Mean (facial skin [2]): 0.106
- cloud point [3]: remains soluble in water even at 80 °C
- decomposition temperature [4]: 332 °C
- glass transition ([4]; film material, DMA/DSC): approximately 189 °C
- Superficial Facial Line Score, Mean (facial skin [5]; 5% aqueous solution applied once to face, 30 Minutes Post, baseline mean 40): 37
- decrease in the superficial facial line score (facial skin [5]; 5% aqueous solution, 30-minute post-treatment vs baseline, p=0.09): 7%
- Isoelectric Point ([6]; 5 mg/ml solution, IEF gel): 10.4
- pI of the protein ([6]; stated in production example): 10.5

— US20130059772A1, “Use of Repeat Sequence Protein Polymers in Personal Care Compositions” (DANISCO US INC., priority 2003, published 2013)
